US20240132578A1

Key:
Experiment in all cases: cell-based or functional assay
[1] = target: HIV-1 93UG077 envelope glycoprotein (Env) on pseudovirus (HIV-1)
[2] = target: HIV-1 92UG005 envelope glycoprotein (Env) on pseudovirus (HIV-1)
[3] = target: HIV-1 92UG024 envelope glycoprotein (Env) on pseudovirus (HIV-1)
[4] = target: HIV-1 APV17 envelope glycoprotein (Env) on pseudovirus (HIV-1)
[5] = target: HIV-1 APV6 envelope glycoprotein (Env) on pseudovirus (HIV-1)
[6] = target: HIV-1 MGRM-D-001 envelope glycoprotein (Env) on pseudovirus (HIV-1)
[7] = target: HIV-1 MGRM-C-027 envelope glycoprotein (Env) on pseudovirus (HIV-1)
[8] = target: HIV-1 MGRM-C-028 envelope glycoprotein (Env) on pseudovirus (HIV-1)
[9] = target: HIV-1 CMU02 envelope glycoprotein (Env) on pseudovirus (HIV-1)
[10] = target: aMLV envelope protein on pseudovirus (negative control virus)
[11] = target: HIV-1 Env of pseudovirus MGRM-F1-013 (clade F) (HIV-1)
[12] = target: aMLV envelope (negative control)
[13] = target: HIV-1 Env of isolate NL43 (positive control) (HIV-1)
[14] = target: HIV-1 Env of isolate 92UG024 (Clade D) (HIV-1)
[15] = target: HIV-1 Env of isolate IAVI-C22 (Clade C) (HIV-1)
[16] = target: HIV-1 Env of isolate IAVI-C18 (Clade C) (HIV-1)
[17] = target: HIV-1 Env of isolate CMU02 (CRF01_AE) (HIV-1)
[18] = target: HIV-1 JR-CSF Env N332A (HIV-1 isolate JR-CSF) (UniProt P20871)
[19] = target: HIV-1 JR-CSF Env I323A (HIV-1 (isolate JR-CSF, clade B)) (UniProt P20871)
[20] = target: HIV-1 JR-CSF Env K305A (HIV-1 (isolate JR-CSF, clade B)) (UniProt P20871)
[21] = target: HIV-1 JR-CSF Env I309A (HIV-1 (isolate JR-CSF, clade B)) (UniProt P20871)
[22] = target: HIV-1 Env of isolate MGRM-F1-014 (pseudovirus) (HIV-1)
[23] = target: HIV-1 envelope glycoprotein (Env) of isolate 92WR026, subtype A (HIV-1)
[24] = target: HIV-1 JR-CSF Env H330A (HIV-1 isolate JR-CSF) (UniProt P20871)
[25] = target: HIV-1 envelope glycoprotein (Env) of isolate 92BR020, on pseudovirus (HIV-1)
[26] = target: HIV-1 JR-CSF Env D325A (HIV-1 isolate JR-CSF) (UniProt P20871)
[27] = target: HIV-1 JR-CSF Env Q337A (HIV-1 isolate JR-CSF) (UniProt P20871)
[28] = target: HIV-1 envelope glycoprotein (Env) of isolate MGRM-Chronic-B-010, on pseudovirus (HIV-1)
HIV-1 APV17 Env (HIV-1) = target: HIV-1 APV17 Env (HIV-1)
HIV-1 JRFL Env (HIV-1) = target: HIV-1 JRFL Env (HIV-1)
HIV-1 APV13 Env (HIV-1) = target: HIV-1 APV13 Env (HIV-1)
[29] = target: HIV-1 93IN905 envelope protein (Env) on pseudotyped virus (HIV-1 strain 93IN905)
[30] = target: HIV-1 94UG103 envelope protein (Env) on pseudotyped virus (HIV-1 strain 94UG103)
[31] = target: HIV-1 IAVI_C22 envelope protein (Env) on pseudotyped virus (HIV-1 strain IAVI C22)
[32] = target: HIV-1 JR-CSF envelope protein (Env) on pseudotyped virus (HIV-1 isolate JR-CSF) (UniProt P20871)
[33] = target: HIV-1 92TH021 envelope protein (Env) on pseudotyped virus (HIV-1 strain 92TH021)
[34] = target: HIV-1 JR-CSF Env F317A (HIV-1 (isolate JR-CSF, clade B)) (UniProt P20871)

PGT-144 (4970_K22) (antibody)
IC50, pseudovirus neutralization [1]: > 10 µg/mL
IC50, pseudovirus neutralization [2]: > 10 µg/mL
IC50, pseudovirus neutralization [3]: > 10 µg/mL
IC50, pseudovirus neutralization [4]: 5.12 µg/mL
IC50, pseudovirus neutralization [5]: > 10 µg/mL
IC50, pseudovirus neutralization [6]: > 10 µg/mL
IC50, pseudovirus neutralization [7]: > 10 µg/mL
IC50, pseudovirus neutralization [8]: > 10 µg/mL
IC50, pseudovirus neutralization [9]: > 10 µg/mL
IC50, pseudovirus neutralization [10]: > 10 µg/mL

PGT-141 (4964_G22; 4993_K13) (antibody)
IC50, pseudovirus neutralization [1]: > 10 µg/mL
IC50, pseudovirus neutralization [2]: > 10 µg/mL
IC50, pseudovirus neutralization [3]: > 10 µg/mL
IC50, pseudovirus neutralization [4]: 0.616 µg/mL
IC50, pseudovirus neutralization [5]: 5.08 µg/mL
IC50, pseudovirus neutralization [6]: > 10 µg/mL
IC50, pseudovirus neutralization [7]: 0.822 µg/mL
IC50, pseudovirus neutralization [8]: 2.35 µg/mL
IC50, pseudovirus neutralization [9]: > 10 µg/mL
IC50, pseudovirus neutralization [10]: > 10 µg/mL

2G12 (antibody)
IC50 [11]: > 50 µg/mL
IC90 (neutralization of pseudovirus) [12]: > 50 µg/mL
IC90 (neutralization of pseudovirus) [13]: 15.8 µg/mL
IC90 (neutralization of pseudovirus) [14]: 7.57 µg/mL
IC90 (neutralization of pseudovirus) [15]: > 50 µg/mL
IC90 (neutralization of pseudovirus) [16]: > 50 µg/mL
IC90 (neutralization of pseudovirus) [17]: > 50 µg/mL

2F5 (antibody)
IC50 [11]: 4.57 µg/mL
IC90 (neutralization of pseudovirus) [12]: > 50 µg/mL
IC90 (neutralization of pseudovirus) [13]: 19.3 µg/mL
IC90 (neutralization of pseudovirus) [14]: 34.4 µg/mL
IC90 (neutralization of pseudovirus) [15]: > 50 µg/mL
IC90 (neutralization of pseudovirus) [17]: 12.2 µg/mL

5145_B14 (PGT-127) (antibody)
Fold IC50 increase relative to wild-type [18]: > 100 fold
Fold IC50 increase relative to wild-type [19]: 4 fold
Fold IC50 increase relative to wild-type [20]: 2.6 fold
Fold IC50 increase relative to wild-type [21]: 6 fold
IC50 (µg/mL), pseudovirus neutralization [22]: > 50 µg/mL
IC50, pseudovirus neutralization [23]: 0.024 µg/mL
Fold IC50 increase relative to wild-type [24]: 0.5 fold
IC50, pseudovirus neutralization [25]: 0.059 µg/mL
Fold IC50 increase relative to wild-type [26]: 0.93 fold
Fold IC50 increase relative to wild-type [27]: 0.5 fold
IC50, pseudovirus neutralization [28]: 0.019 µg/mL

4877_D15 (PGT-122) (antibody)
IC50, pseudovirus neutralization (HIV-1 APV17 Env (HIV-1)): 0.522 µg/mL
IC50, pseudovirus neutralization (HIV-1 JRFL Env (HIV-1)): 0.0471 µg/mL
IC50 (µg/mL), pseudovirus neutralization [22]: 0.195 µg/mL
IC50, pseudovirus neutralization [23]: 0.036 µg/mL
IC50, pseudovirus neutralization [25]: 0.021 µg/mL
IC50, pseudovirus neutralization (HIV-1 APV13 Env (HIV-1)): 0.992 µg/mL
IC50, pseudovirus neutralization [28]: 0.018 µg/mL

1443_C16 (PG16) (TCN-116) (antibody)
IC50, Neutralizing Antibody Assay, Virus/Ab Incubation 1 hour [29]: 0.33 µg/mL
IC50, Neutralizing Antibody Assay, Virus/Ab Incubation 18 hour [29]: 0.255 µg/mL
IC90 (neutralization of pseudovirus) [12]: > 50 µg/mL
IC90 (neutralization of pseudovirus) [13]: > 50 µg/mL
IC50, Neutralizing Antibody Assay, Virus/Ab Incubation 1 hour [30]: 0.0211 µg/mL
IC50, Neutralizing Antibody Assay, Virus/Ab Incubation 18 hour [30]: 0.0085 µg/mL
IC90 (neutralization of pseudovirus) [14]: > 50 µg/mL
IC50, Neutralizing Antibody Assay, Virus/Ab Incubation 1 hour [31]: 0.114 µg/mL
IC50, Neutralizing Antibody Assay, Virus/Ab Incubation 18 hour [31]: 0.106 µg/mL
IC90 (neutralization of pseudovirus) [15]: > 50 µg/mL
IC50, Neutralizing Antibody Assay, Virus/Ab Incubation 1 hour [32]: < 0.0025 µg/mL
IC50, Neutralizing Antibody Assay, Virus/Ab Incubation 18 hour [32]: < 0.0025 µg/mL
IC90 (neutralization of pseudovirus) [16]: 0.207 µg/mL
IC90 (neutralization of pseudovirus) [17]: > 50 µg/mL
IC50, Neutralizing Antibody Assay, Virus/Ab Incubation 1 hour [33]: 0.136 µg/mL
IC50, Neutralizing Antibody Assay, Virus/Ab Incubation 18 hour [33]: 0.0435 µg/mL

5147_N06 (PGT-130) (antibody)
Fold IC50 increase relative to wild-type [34]: 17 fold
IC50, pseudovirus neutralization (HIV-1 APV17 Env (HIV-1)): > 10 µg/mL
IC50, pseudovirus neutralization (HIV-1 JRFL Env (HIV-1)): 0.0346 µg/mL
Fold IC50 increase relative to wild-type [20]: 6.9 fold
Fold IC50 increase relative to wild-type [21]: > 77.9 fold
Fold IC50 increase relative to wild-type [26]: > 1000 fold
IC50, pseudovirus neutralization (HIV-1 APV13 Env (HIV-1)): 0.0345 µg/mL
